Assays:
[1] = target: human PCSK9 (proprotein convertase subtilisin kexin type 9), mature form (human) (UniProt Q8NBP7); test: BIAcore SPR, pH 6.0
[2] = target: human PCSK9 (proprotein convertase subtilisin kexin type 9), mature form (human) (UniProt Q8NBP7); test: BIAcore SPR, antibody amine-coupled to CM5 chip, PCSK9 as analyte, pH 7.4
[3] = target: human PCSK9 (proprotein convertase subtilisin kexin type 9), mature form (human) (UniProt Q8NBP7); test: BIAcore solution equilibrium binding assay, free PCSK9 read on immobilized 21B12
[4] = target: human PCSK9 (proprotein convertase subtilisin kexin type 9), mature form (human) (UniProt Q8NBP7); test: BIAcore SPR, pH 7.4
[5] = target: human PCSK9 (proprotein convertase subtilisin kexin type 9), mature form (human) (UniProt Q8NBP7); test: KinExA solution equilibrium, PCSK9-coated beads

Row | Kd [1] | koff [1] | kon [1] | Kd [2] | Kd [3] | Kd [4] | koff [4] | kon [4] | Kd [5] | Binder
1 | 0.0073 nM | 1.68e-05 s⁻¹ | 2.29e+06 M⁻¹ s⁻¹ | 0.19 nM | 0.015 nM | 0.19 nM | 6.63e-06 s⁻¹ | 34900 M⁻¹ s⁻¹ |  | 21B12, anti-PCSK9 huIgG4 (antibody, V domains shown) VH: QVQLVQSGAEVKKPGASVKVSCKASGYTLTSYGISWVRQAPGQGLEWMGWVSFYNGNTNYAQKLQGRGTMTTDPSTSTAYMELRSLRSDDTAVYYCARGYGMDVWGQGTTVTVSS VL: QSALTQPASVSGSPGQSITISCTGTSSDVGGYNSVSWYQQHPGKAPKLMIYEVSNRPSGVSNRFSGSKSGNTASLTISGLQAEDEADYYCNSYTSTSMVFGGGTKLTVLQ
2 | 0.029 nM | 7.01e-05 s⁻¹ | 2.39e+06 M⁻¹ s⁻¹ | 0.47 nM |  | 0.47 nM | 4.98e-05 s⁻¹ | 106000 M⁻¹ s⁻¹ | 0.015 nM | 16F12, anti-PCSK9 huIgG4 (antibody, V domains shown) VH: QVHLVESGGGVVQPGRSLRLSCAASGFTFNSFGMHWVRQAPGKGLEWVALIWSDGSDEYYADSVKGRFTISRDNSKNTLYLQMNSLRAEDTAVYYCARAIAALYYYYGMDVWGQGTTVTVSS VL: QSVLTQPPSVSAAPGQKVTISCSGSSSNIGNNFVSWYQQLPGTAPKLLIYDYNKRPSGIPDRFSGSKSGTSATLGITGLQTGDEADYYCGTWDSSLSAYVFGTGTRVTVLQ

Source: patent US20120020975A1
